Legend:
EgtB = EgtB (Mycolicibacterium smegmatis, UniProt A0R5N0); assay: EgtB activity using hercynine (2) and Cys as substrates; format: biochemical, Mycobacterium smegmatis
Source text: (§1) Two different assays were developed for both EgtB and OvoA catalysis (FIG. 3). Both EgtB and OvoA are proposed to be oxidases,^[9-10] which catalyze the oxidative coupling between His and Cys to form the C—S bond. At the same time, sulfur is oxidized to sulfoxide. The overall process is a four-electron oxidation process (FIG. 1) similar to the case of the isopenicillin N synthase.^[12] In the initial report by Seebeck, they monitored the reaction by monitoring the absorption changes at 260 nm because the oxidative products (3 or 6, FIG. 1) have absorptions in this region. However, it is not very sensitive. Oxygen is needed because there was no detectable product formation under anaerobic conditions. Based on this feature, we developed the EgtB and OvoA activity assays by monitoring the oxygen consumption rate (FIG. 3-I-B) using the NeoFoxy oxygen electrode (FIG. 3-I-A). This assay (FIG. 3-I-B) was used as the routine assay to optimize the conditions for EgtB and OvoA activities.
According to the initial reports from Seebeck,^[9-10] EgtB and OvoA distinguish themselves from each other by both their substrate preferences and their product C—S bond regio-selectivity (FIG. 1). The C—S bond in ergothioneine (5) is located at the histidine ε-carbon, while for ovothiol, the C—S bond is located at the histidine δ-carbon (8). Their substrate preferences are also different. […]

OvoA = OvoA (Erwinia tasmaniensis, UniProt B2VFD8); assay: OvoA activity, oxygen consumption assay / kinetic analysis; format: biochemical; settings: air-saturated HEPES buffer
Source text: as §1
(§2) For oxygenase or oxidase-catalyzed reaction, potential problems include the presence of side-reactions, non-productive oxygen consumption, or oxidative inactivation of enzyme itself. Multiple activity assays will provide useful information to analyze those situations. To achieve this goal, besides the oxygen consumption assay, we have also developed a ^1H-NMR assay to directly monitor the product formation (FIG. 3-II). In ^1H-NMR, the chemical shifts of the imidazole H-atoms in both the products (3 and 6, FIG. 3-II) and the substrates (1 and 2) are well-separated from the rest of the reaction mixture. Thus, the reaction mixture can be analyzed routinely without the need of a product separation. In FIG. 3-II-B (OvoA catalysis), the signals with chemical shifts at 6.93 ppm and 7.70 ppm are assigned to the two histidine imidazole H-atoms. The signal at 7.83 ppm is from the imidazole H-atom of the oxidative coupling product 6. While for the oxidative product 3 (EgtB catalysis), its imidazole H-atom has a chemical shift of 7.10 ppm (FIG. 3-II-B). […]

[1] = tested on: C[N+](C)(C)[C@@H](Cc1cnc[nH]1)C(=O)[O-]; assay: as above; format: biochemical, Erwinia tasmaniensis; settings: other: air-saturated HEPES buffer; coupling with Cys
Source text: as §1, §2

N[C@@H](CS)C(=O)O = assay: as above; format: biochemical, Erwinia tasmaniensis; settings: other: air-saturated HEPES buffer; coupling with hercynine (2)
Source text: as §1, §2

NcEgt-1 = target: T1, NcEgt-1 (Neurospora crassa, UniProt Q7RX33); assay: NcEgt-1 catalysed oxidative coupling of hercynine (2) and Cys to form 4; format: biochemical
T1 sequence (Q7RX33 whole entry, looked up): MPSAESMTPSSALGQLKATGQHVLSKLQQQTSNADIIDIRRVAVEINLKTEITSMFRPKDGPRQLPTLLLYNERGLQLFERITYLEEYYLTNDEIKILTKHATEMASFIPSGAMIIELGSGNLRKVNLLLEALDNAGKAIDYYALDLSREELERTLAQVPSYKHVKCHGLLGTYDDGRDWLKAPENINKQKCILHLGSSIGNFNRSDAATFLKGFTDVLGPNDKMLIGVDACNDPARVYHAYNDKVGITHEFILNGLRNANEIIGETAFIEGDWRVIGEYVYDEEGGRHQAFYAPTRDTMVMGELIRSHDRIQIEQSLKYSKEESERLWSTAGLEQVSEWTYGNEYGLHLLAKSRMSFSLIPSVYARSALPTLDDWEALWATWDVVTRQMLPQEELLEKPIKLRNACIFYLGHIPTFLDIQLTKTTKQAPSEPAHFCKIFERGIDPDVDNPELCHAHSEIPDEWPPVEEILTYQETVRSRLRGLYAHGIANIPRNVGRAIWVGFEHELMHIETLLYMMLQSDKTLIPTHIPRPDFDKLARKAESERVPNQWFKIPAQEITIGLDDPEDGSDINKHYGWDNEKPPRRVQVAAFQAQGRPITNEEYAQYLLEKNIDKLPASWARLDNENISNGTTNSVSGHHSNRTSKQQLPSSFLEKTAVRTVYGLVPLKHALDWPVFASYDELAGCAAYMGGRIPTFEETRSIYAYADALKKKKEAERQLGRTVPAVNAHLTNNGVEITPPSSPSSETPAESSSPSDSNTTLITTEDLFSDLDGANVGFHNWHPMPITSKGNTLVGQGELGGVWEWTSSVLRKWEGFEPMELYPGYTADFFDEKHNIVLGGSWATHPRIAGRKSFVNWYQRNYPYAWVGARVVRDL
Source text: In the above section, we have successfully solved the EgtE problems, which enable ergothioneine production through metabolic engineering. However, the original ergothioneine biosynthetic pathway (FIG. 1A) is not efficient. To solve this problem, we initiated the search for enzymes that can oxidatively couples hercynine (2) and Cys directly as outlined in FIG. 2. Two of such enzymes (OvoA in FIG. 1B and NcEgt-1 from Neurospora crassa^[13]) have been identified by a combination of bioinformatics analysis and activity analysis using oxygen and ^1H-NMR assays.
Based on this exciting discovery, we have also examined another protein NcEgt-lfrom Neurospora crassa^[13].

N[C@@H](CS)C(=O)O [Cys, cysteine]
recognition as substrate by EgtB (EgtB): cannot recognize Cys as the substrate

C[N+](C)(C)[C@@H](Cc1cnc[nH]1)C(=O)[O-] [hercynine]
kcat for the oxidative coupling between Cys and hercynine (2) (OvoA): 270 ± 5 min⁻¹

OvoA (Erwinia tasmaniensis Et1/99)
Km [1]: 395 ± 30 µM | Km (N[C@@H](CS)C(=O)O): 3.19 ± 0.41 mM

B1: NcEgt-1: enzyme from Neurospora crassa that catalyzes oxidative coupling of hercynine and cysteine (protein)
chain: MPSAESMTPSSALGQLKATGQHVLSKLQQQTSNADIIDIRRVAVEINLKTEITSMFRPKDGPRQLPTLLLYNERGLQLFERITYLEEYYLTNDEIKILTKHATEMASFIPSGAMIIELGSGNLRKVNLLLEALDNAGKAIDYYALDLSREELERTLAQVPSYKHVKCHGLLGTYDDGRDWLKAPENINKQKCILHLGSSIDKVGITHEFILNGLRNANEIIGETAFIEGDWRVIGEYVYDEEGGRHQAFYAPTRDTMVMGELIRSHDRIQIEQSLKYSKEESERLWSTAGLEQVSEWTYGNEYGLHLLAKSRMSFSLIPSVYARSALPTLDDWEALWATWDVVTRQMLPQEELLEKPIKLRNACIFYLGHIPTFLDIQLTKTTKQAPSEPAHFCKIFERGIDPDVDNPELCHAHSEIPDEWPPVEEILTYQETVRSRLRGLYAHGIANIPRNVGRAIWVGFEHELMHIETLLYMMLQSDKTLIPTHIPRPDFDKLARKAESERVPNQWFKIPAQEITIGLDDPEDGSDINKHYGWDNEKPPRRVQVAAFQAQGRPITNEEYAQYLLEKNIDKLPASWARLDNENISNGTTNSVSGHHSNRTSKQQLPSSFLEKTAVRTVYGLVPLKHALDWPVFASYDELAGCAAYMGGRIPTFEETRSIYAYADALKKKKEAERQLGRTVPAVNAHLTNNGVEITPPSSPSSETPAESSSPSDSNTTLITTEDLFSDLDGANVGFHNWHPMPITSKGNTLVGQGELGGVWEWTSSVLRKWEGFEPMELYPGYTADFFDEKHNIVLGGSWATHPRIAGRKSFVNWYQRNYPYAWVGARVVRDL
modifications: Neurospora crassa OR74A
notes: enzyme from Neurospora crassa that catalyzes oxidative coupling of hercynine and cysteine
activity of 2→4 conversion compared with OvoA (NcEgt-1): same order of magnitude as OvoA
